Series [1] is described as follows: Plasma pharmacokinetics of EC0565 after a single intravenous or subcutaneous dose. Particulars: for Tmax: sc. The procedure: The bioavailability of EC0565 after subcutaneous injection was measured. Female Lewis rats with rounded tip jugular vein catheters (Harlan) were fed regular rodent diet. The treated animals were given a single intravenous or subcutaneous dose of EC0565 at 2 μmmol/kg. […] For subcutaneous administration FIG. 18b, whole blood samples (300 μl) were collected from the animals at 1 min, 10 min, 30 min, 1 h, 2 h, 3 h, 4 h, 8 h, and 12 h post injection. The blood samples were placed into anti-coagulant tubes containing 1.7 mg/mL of K3-EDTA and 0.35 mg/mL of N-maleoyl-beta-alanine (0.35 mg/mL). Plasma samples were obtained by centrifugation for 3 min at ˜2,000 g and stored at −80° C. The amount of EC0565 and its released base drug (everolimus) were determined by HPLC using the EC0565 injection solution as the standard.

The nature of the next series: physchem. The note with it: pH 7.4.
The subject of series [2] is Proliferating Cell Nuclear Antigen (PCNA). In words: Western blot of PCNA in synchronized RAW264.7 cells. Type of series: cell-based, murine. Particulars: 1-1000 nM; EC0565 2 h treatment, 48-h chase; everolimus 48 h. Background: Immunoblotting shows a protein as a band on a membrane.
Method: To study anti-proliferative effect of EC0565, FR-positive murine macrophage-like RAW264.7 cells (serum deprived for 36 h for synchonization) were given a 2 h treatment of EC0565 (1, 10, 100, and 1000 nM) without or with 1000× excess of EC17 (as a folate competitor) followed by a 48-h chase in drug-free medium. For comparison, the cells were also treated for 48 h with everolimus (1, 10, 100, and 1000 nM). […] Western blot analysis was carried out on whole cell lysates using a monoclonal antibody specific for PCNA (PC10, Cell Signaling, Danvers, Mass.). After incubation with a peroxidase-conjugated secondary antibody, the signals were visualized using SuperSignal West Pico Chemiluminescent Substrate system (ThermoScientific, Waltham, Mass.) following the manufacturer's instructions. The images were acquired using a G:BOX Chemi HR 16 gel imaging system (Syngene, Frederick, Md.).
For series [3] the following is noted: cited from earlier work.
The conditions of series [4]: rats; cited from earlier work.
Where [5] appears, read: female, Lewis, rat, in vivo, 2 μmmol/kg.

Molecules are shown by their SMILES.

Here are results for 2 compounds from US20130203680A1, “FOLATE CONJUGATES FOR TREATING INFLAMMATION OF THE EYE” (ENDOCYTE, INC., priority 2010, published 2013).

As a reminder, the Tmax is the time from dosing to the highest level. Usually solubility stands for how much of the substance goes into solution per volume. For `CO[C@H]1C[C@@H]2CC[C@@H](C)[C@@](O)(O2)C(=O)C(=O)N2CCCC[C@H]2C(=O)O[C@H]([C@H](C)C[C@@H]2CC[C@@H](OCCOC(=O)OCCSSC[C@H](NC(=O)[C@H](CCC(=O)NC[C@H](O)[C@@H](O)[C@H](O)[C@H](O)CO)NC(=O)[C@H](CCC(=O)O)NC(=O)[C@H](CCC(=O)NC[C@H](O)[C@@H](O)[C@H](O)[C@H](O)CO)NC(=O)[C@H](CCC(=O)O)NC(=O)[C@H](CCC(=O)NC[C@H](O)[C@@H](O)[C@H](O)[C@H](O)CO)NC(=O)CC[C@H](NC(=O)c3ccc(NCc4cnc5nc(N)[nH]c(=O)c5n4)cc3)C(=O)O)C(=O)O)[C@H](OC)C2)CC(=O)[C@H](C)/C=C(\C)[C@@H](O)[C@@H](OC)C(=O)[C@H](C)C[C@H](C)/C=C/C=C/C=C/1C` [EC0565], in series [1] (setting [5]), the bioavailability was roughly 128% and the Tmax was roughly 1 h. Further, the “free drug (everolimus) exposure/release in plasma, based on AUC” value in series [1] (single intravenous dose of EC0565 at 2 μmmol/kg) is “approximately 18%”. Also, in series [1] (single subcutaneous dose of EC0565 at 2 μmmol/kg), the “free drug (everolimus) exposure/release in plasma, based on AUC” value is on record as roughly 17%. Moreover, the solubility in “physchem” is greater than 1000 µM.
With `CO[C@H]1C[C@@H]2CC[C@@H](C)[C@@](O)(O2)C(=O)C(=O)N2CCCC[C@H]2C(=O)O[C@H]([C@H](C)C[C@@H]2CC[C@@H](OCCO)[C@H](OC)C2)CC(=O)[C@H](C)/C=C(\C)[C@@H](O)[C@@H](OC)C(=O)[C@H](C)C[C@H](C)/C=C/C=C/C=C/1C` [everolimus], the Tmax in series [1] (female, Lewis, rat, in vivo) was roughly 1 h. The “effect on PCNA activities” value in series [2] is given as “inhibited PCNA activities”. The water solubility in series [3] was 1 to 10 µM. The oral bioavailability in series [4] is recorded as roughly 12%.
